T1: REPRESSOR OF GA1-3 (RGA), full-length, Arabidopsis thaliana DELLA protein (Arabidopsis thaliana, UniProt Q9SLH3 1-587)
T1 sequence (looked up): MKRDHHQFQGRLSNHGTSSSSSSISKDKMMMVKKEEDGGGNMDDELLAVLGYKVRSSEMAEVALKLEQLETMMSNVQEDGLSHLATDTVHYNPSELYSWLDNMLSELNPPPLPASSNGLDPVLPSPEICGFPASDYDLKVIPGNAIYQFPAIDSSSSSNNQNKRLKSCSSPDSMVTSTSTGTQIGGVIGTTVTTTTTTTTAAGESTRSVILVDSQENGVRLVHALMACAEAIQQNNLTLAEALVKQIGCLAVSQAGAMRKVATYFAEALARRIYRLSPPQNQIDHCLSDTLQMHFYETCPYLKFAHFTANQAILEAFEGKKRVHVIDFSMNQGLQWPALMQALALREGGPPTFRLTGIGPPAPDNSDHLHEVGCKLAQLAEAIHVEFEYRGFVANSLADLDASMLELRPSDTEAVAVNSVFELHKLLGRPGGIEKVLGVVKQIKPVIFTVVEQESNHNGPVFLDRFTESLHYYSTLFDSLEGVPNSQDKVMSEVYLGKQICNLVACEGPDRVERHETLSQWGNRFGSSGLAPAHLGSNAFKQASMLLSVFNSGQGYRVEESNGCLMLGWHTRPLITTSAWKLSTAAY

T2: ASK2, SKP1-like protein of Arabidopsis thaliana (Arabidopsis thaliana, UniProt Q9FHW7 1-171)
T2 sequence (looked up): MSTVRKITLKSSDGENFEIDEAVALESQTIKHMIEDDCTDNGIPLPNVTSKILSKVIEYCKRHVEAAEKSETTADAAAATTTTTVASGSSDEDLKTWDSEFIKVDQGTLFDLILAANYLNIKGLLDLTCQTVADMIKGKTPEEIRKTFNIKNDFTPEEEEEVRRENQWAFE


Legend:
[1] = molecular target: T1, REPRESSOR OF GA1-3 (RGA), full-length, …; experiment: SEC-MALS
[2] = molecular target: T2, ASK2, SKP1-like protein of Arabidopsis …; experiment: SEC

| binding result [1] | binding result [2] | Binder |
| --- | --- | --- |
| binds |  | GA … DWARF1A (GID1A), gibberellin receptor, GA3-bound (receptor, Arabidopsis thaliana, UniProt Q9MAA7 1-345, looked up) MAASDEVNLIESRTVVPLNTWVLISNFKVAYNILRRPDGTFNRHLAEYLDRKVTANANPVDGVFSFDVLIDRRINLLSRVYRPAYADQEQPPSILDLEKPVDGDIVPVILFFHGGSFAHSSANSAIYDTLCRRLVGLCKCVVVSVNYRRAPENPYPCAYDDGWIALNWVNSRSWLKSKKDSKVHIFLAGDSSGGNIAHNVALRAGESGIDVLGNILLNPMFGGNERTESEKSLDGKYFVTVRDRDWYWKAFLPEGEDREHPACNPFSPRGKSLEGVSFPKSLVVVAGLDLIRDWQLAYAEGLKKAGQEVKLMHLEKATVGFYLLPNNNHFHNVMDEISAFVNAEC |
|  | binds | SLEEPY 1 (SLY1), F-box protein (natural protein, Arabidopsis thaliana, UniProt Q9STX3 1-151, looked up) MKRSTTDSDLAGDAHNETNKKMKSTEEEEIGFSNLDENLVYEVLKHVDAKTLAMSSCVSKIWHKTAQDERLWELICTRHWTNIGCGQNQLRSVVLALGGFRRLHSLYLWPLSKPNPRARFGKDELKLTLSLLSIRYYEKMSFTKRPLPESK |

Reference: article doi:10.1101/2025.02.08.637281 (bioRxiv, 2025)
